Our source for the protein production values is a protein production outcome set (Wang et al. 2014).

The data set in a line: label from the status in PepcDB records.

Turning to “MSGEGNLGKDHEEENEAPLPGFRFHPTDEELLGYYLRRKVENKTIKLELIKQIDIYKYDPWDLPRVSSVGEKEWYFFCMRGRKYRNSVRPNRVTGSGFWKATGIDKPVYSNLDCVGLKKSLVYYLGSAGKGTKTDWMMHEFRLPSTTKTDSPAQQAEVWTLCRIFKRVTSQRNPTILPPNRKPVITLTDTCSKTSSLDSDHTSHRTVDSMSHEPPLPQPQNPYWNQHIVGFNQPTYTGNDNNLLMSFWNGNGGDFIGDSASWDELRSVIDGNTKP”, the protein production entry was “failed”.
For “MSGHDHGDDGVNRRKVLECMTWAGTGVLWTITGGVPRSLGIIDSAQAATAAAPGMTFLQISDSHVGFDKPANPNALGTLEEAINKINAMPAKPSFMIHTGDITHLSKAAEFDNAERIISQTKLDVHYVPGEHDFIDEEVKLYRERYGRGTKGHGWYSFDAGGVHFVGLVNVVDLKAGGLGNLGAEQLAWLEDDLRGKSKSTPVVLFAHIPLWTVYPEWGWGTEDGGRALEYVKGFGSVTVLNGHIHQVMQKVEGNVTFHTARSTAFPQPAPGAAPSPGPMKVEDARLRSMLGVASINFKQNEQRLAIIDTPLQG” the value was “failed”; for “MSGISSLGGRVGVTILEILIFSAGLLLLIKGSDIFVEAATRIAEAFKVSEFLIALVLASVATTLPEVTVSAISSYRGNSGIAIGNAVGSALANIALILAISAMIMPLNVDKIASENSLIMVGVTFYAWLLMSNGEISRIEGLTLVLIYAAFLYYLYRKHVKLEEVEKKSRCNVTRDVLILFLSGGMVILGAELVVDSAVKIARAIGIPEVVIGVTLVSIGTSLPEFANSLTATLKKIPNVSVGNIIGADILDILMVIGIASMIRPIRVDPSIVKIVMPITLLVMIILTVSLFRNNKIGRKTAVTLLIIYSAFIYLLTQGKVYIPG”, “failed”.
For “MSGKNIVFLVLLLFIPVSLAAHYLEWGDLIVFITAGLAILPLAAWMGAATEEIAVVVGPTLGGLLNATFGNATELIIALVALNAGLVNVVKASITGSIIGNLLLVMGLSMLLGGLRHKEQTFQPIVARVNASAMNLAVIAILLPTAMNYTAQGIGEETLQYLSVAVAVVLILVYILTLIFSMKTHAYLYDVGVAEIETEENPHPKPNILLWSGVLLVCTLLVAVESELLVDALEVATSQLGLTALFTGVILVPIVGNAAEHATAVTVAMKDKMDLSVSVAVGSSMQIALFVAPVLVIAGWILGQPMDLDFQPFELVAVVVSVLIANSISSDGKSNWLEGTLLLAAYTVLGFAFYFHPDVGGLG” the value was “failed”.
With “MSGKRVAKNTLFQIVKMLITTVVNLYMVRVLLHQLGVEGYGIFNLIAGVLALMLFLNGAMTTSSQRYLSFYSTQQLEKRTSVFATTKSLHIVVAMIIFLLLFSLQTFIFEDLINIPVSVVSSAQSLYQIMAVGVLASVVTVPFNAQINANEDLGIDAVFSVFESLFKLIAAFLIVFFENQLVSLGALFVLVSWTMLIVKVVYCRIKYEECNLLNFKLDIALFKEMIGFTSWNSFGAICGVARVQGLAVVLNHFFGVYINAVYAIAVQVNGKLKEFSINIMKAFNPRIVKAESKDNREEMLHLSMLASRFSLLLYSVIALPIFFETDFMLSIWLGDYPDGVLTFIKLFLVLAFVNLTTVGLQTAIQATGDVKAYQSTIGSVLLLTVPLAYIFLSLGYPPYTVIVVSIFMEVVSCGMRLAFLKLKAGLSIKKYILFVINKALQVLIPTIVVLFSLTISFEQSILRFISTTLVSFGMISFLTYWLVLGVEEKKMIRLKV”, the protein production entry is given as “not failed”.
For the sequence “MSGPEAEQQSVVLYDIEDKPPLGKAIPLGIQHVLAMFLGNVAPPLILAGAVGSVTGETTFLVQMALIVAGIATIVQAYPVGPVGARLPVVMGTSFAFLGPLIGIGNQFGIAAVFGASLLAAPVEVIMGVSFDRFRRFFPPLVTGIVVMLIGLTLIPTGMNYAAGASAGPSAEGYGSFVNLGLAGLVLIVTVGLNQFFEGFLRVISVFVGIIVGYLAALALGVVDLSAVAAAGWVTVPVPLKYGLAFEPSAVVTVAFLYIITGMETIGDISGTVSATGRNATREEIRGGLVADGVMSVFGAVFNALPNTSFSQNVGLVNFTGVASRYVAGIGGVVLLALGFIPKVGAVVSAMPDAVLGGGALILFAMIFSSGARLITQNVELDHRNSTILAMSMALGLGVAFRPEILQNFPSEVQTLFGSALVTGGMAALILNIVFPGGSVGTGPTEYTAGLEPDPVETGAGAPPVDDD”, the protein production result was “failed”.
For “MSGSLRDSAIDHFNKTISLMQKRQNKEALEELEKAEEAAKQAKANDILIHTVNLRGQLMLTLGALDEVLRICGFASNFFADILLKDPENEFFQQSFQMNLNNLGTTGNFYHNTGRFPQAKKAYETGLGITLKLLQSSPQDDFLQNYTGTTLNNLGNLLSDMGRIEDAKNRYEKALEMREKLLEKDPENVAYQSYVGGTLNNLGNLLKNMGRIEDAKNRYEKALEMREKLLEKDPENVAYQSYVAMTLNNLGNLLKNMGRIEDAKNKYEKALEMREKLLEKDPENVAYQSDVAMTLNNLGTLLSDLGKIEDAKNRYEKALEIYEKLLENDPENVAYQSYVAMALNNLGNLLKNMGRIEDAKNRYEKALEMREKLLENDPENVAYQSDVAMTLNNLGTLLSDMGRIEDAKNRYEKALEIYEKLLEKDPENIAYQSDIGGTLNNLGTLLSDMGRIEDAKNRYEKALEIYEKLLEKDPENIAYQSEVGGTLNNLGTLLSDMGRIEDAKNRYEKALEIYEKLLEKDPENIAYQSEVGTMLNNLGNLLSDMGRIEDAKNRYKKALEIYEKLLEKDPENIAYQSYVGGTLNNLGNLLSDMGRIEDAKNRYKKALEIYEKLLEKDPENVAYQSYVGTMLNNLGTLLSDMGRIEDAKNRYKKALEIYEKLLEKDPENVAYQSYVGGTLNNLGNLLSDMGRIEDAKNRYKKALGIYEKLLEKDPGNLAYHSEVNTIQCKVKKVKGSGRC”, the protein production entry was “failed”.
As to “MSGTGEVRGMRAARIAAGAVIPGELALAVCLAAGVRPPVWATAAAEAVALAVLMLEAWVLRSLYASRRAQGLEPPAALRAAVRAVVPARVRRLLVHELRAAASLGRWAARRKHGVRPGDHVAGYTGPQTAMMYGLIFVSVIETVALAVLIPWPVVHRVLLVLDVYGVLMMLGLHAACVTRPHVARPDGSLRIRYGALFDLAVPADAVASVRVDRCYPQGRLVTLSEKGVLDLIVAGQTTVTLELTRPLVFTRPLGGRGEARTIRFHADDPRALVGALRRPALT”, the protein production result is reported as “failed”.
Consider “MSGVILGRYWGGLSQLIYVIIGAAGVPWFADMSGGPEVLLGATGGYLLGFILAALLLGHFVDRHIRARKFTPMLGLMTIANFGLIYIPGLVVLGLWSLKTQGTLPGPWELLVMGLLPFIPGDILKITGAAALTRAITPKEPYGEEIDIQKAEGWRVP”, for which the protein production entry was “failed”.
Regarding “MSGVTSEPIAMDATRFQHTPYYCEENVYLLCKTLCENGVAEATCSDLFVVFISNEKKQVPLWHQKASTRADGVVLWDYHVICVQRKKESDSEPLVWDLDSTLPFPSPLASYVTETIQPSFQLFAEYQRFFRIVHAPLFFKHFASDRRHMKEPDGSWTAQPPPYEPIVAQDGILHNLSEYIAMSGADTLSSLDPETVTAAISQKLGVVVSHTQLQDLFTKLP”, the protein production entry is listed as “failed”.
Regarding “MSHAHKKHKENAPKSLNFYVITISTSRYEKLLKKEPIVDESGDIIKQLLIENGHKIIGYSLVPDDKIKILKAFTDALSIDEVDVIISTGGTGYSPTDITVETIRKLFDREIEGFSDVFRLVSFNDPEVKAAAYLTKASAGIIGKKIVYLLPGSPDAVKLALKELILPEVGHLVYLVRS”, the protein production result is “not failed”.
The entry for “MSHKCFKDESFETRISCPLCQKELIMTWQRDNIPYFGEIMYVSAKCPCSFRFADTMILSSKEPMRYELSVESPEDLDARVIRSTSGTIRIPEMGIVVEPGTVSDSYITNIEGVLQRVQNVLMTASRWVREDEEKFARSQELLCMLNEVIEGRRAITVIIEDPLGNSAIISKKAVASKLSKEEAEKLNTGMIVFDVDKSELAHDISDNVKPLGGDLEHHHHHH” is “not failed”; for “MSHLRIPKNWTIQRSTPFFTKDNVPEALLTHHNTAVDVFGQICVMEGVVTYYGFANSEATEPEIKVVINAGQFATSPPQYWHRIELSDDAQFNINFWSDQDKSGKKMFNTKLEHHHHHH” it is “not failed”.
Consider “MSHVSDYRPCFLIPCYNHGSTIADVVASLSSFDLPVLVVDDGSNEDTKQALSALSEQGLIKLISLSENQGKGGAVMAGLHQAHQLGFTHTIQIDADGQHDLEALPKLLSASETKPDNLISGQPIYDESVPKARLYGRYATHIWVWIETLSLSIKDSMCGFRAYPVAKTVAVLNKYNIGKRMDFDIEILVRMYWEGVDIDFVPTRVIYPEGGISHFDALWDNVKISWMHTRLFFGMLPRIPSLLARKRRHTDDSNAHWSKRKEQGTILGIKTLLAVYRLFGRKAFDLILKLVMRYYHFTGKSAREASEIYLQNLQRYAAQQNIALPKQLDSYHHLLSFGRTMLDKLAAWQGDFNVDNLTIHGQHHFEEMAQKKQGVLILGSHLGNIELCRALGRRHSHVKINALVFTQHAEQFNAVMKAVNPNSELNLIQVSSMGPDTAILLQQKIEQGEWVVIVGDRTSTSKENRVVWADFLGKPAPFPQGPFMLASVLKAPVYLLFGLRDDEANTPHFNVYFEHFSDQITLPRKERQQALEHVVQQYAHRLEHHTLQAPLQWYNFFNFWTLSNQPHDKQQ”, for which the protein production result is “failed”.
For “MSIEERLEALEKEIQKMKDIEEIKKLKGQYFRCLDGKFWDELETTLSPNIVTSYSNGKLVFHGPKEVTDYFKKAMPREEISMHMGHTPEITIDSETTATGRWYLEDKLIFTEESKYAGSGVNGGAFYTDKYEKVDGKWYILETGYLRVYEEHFMRDPKIKITMNMHKTK”, the protein production entry is recorded as “not failed”.
Consider “MSIFANLKDRMKAVFQPRSDILASQDAESTPGSRDALFAIEELSRAVRNDPDAVEIYLALGNLYRLRGDIDRAVQIRSSLIVRPGLDNRFRARAYLELGRDYRRGGFVDRALQAFDEAQRLGAERDAIILELAHLHADSGSFDLAAEQFGRVGHKPAQAHYLVRHAEDLCGQGEFAEAVKTLTRAVKVYPGSIEAWTTRIAMHIRSGEWRKAKSMLREAMQSVSPDRRFLVFDGILAITPPENAPDSVQQFEQNRCECVLPVISEQEPELLLHYYGALFLLRCGEREQAGNWLAKAMVLRPDFWAARLELLGISMDRQQLSPVFKGQLEYFVSQARHVKRFVCQNCGLRREQAFYLCPRCRSWHSATFRLSLQD”, for which the protein production entry was “failed”.
With “MSIIIPAYNEEENIKRAIKAALSQDYPVSEVIVVDDGSEDGTYERAKEIKDHRLKVLKIDHRGKAGAINEGLKIAKGSVIVTTDADSFMSKDAVRRLVERFYSDDVVAVGGQIRVIVESFMTLVQDIEHLRIAMYRRGKELENLSLAPGPLSAFRRDVLEKIGGIQRSIVEDYATTKIVKKYGRVVYAPKAKLYTRMPITLRDLWRQRKRWFLGDLQHHNLNDLLNLLLGDVIALLDVILPFIFLLEGSYLPLLAFVMFEVITMVIAVIWEGGSLIEALLFPVVLWFLALFYLSLHLYGYAVYGLKSLLRFTRS”, the protein production result is given as “failed”.
“MSINISELLQPITEQSPCGEDYSFSNEFHLIKKARTQDDVLLDQGDWVTELKQADWETVTSTSSNLLKTKTKDIRLLTWLSEGWANLYGFEGIYQGIELSHRLLDQFWNDIHPVVEDDDLDQRIALLQGLINQLPLLIKKTPLINTSPYYHLLNYENFLHHQNIRRKQSDEYEQLDGPSEIELFEQALFNTSKSFQYQNYQMFKHVVSQWQQLKDVLDRLMGVDAPSFAAIDSSLQDIDVNLRKIYKAEAFDTNPVATSSATASSHASETLSTEPMPTSNVNVNQPSFQPQTQNHIQNREQAIRVLQDISDYFQANEPHSPVSYMLQKTIKWSQMPLHEWLAQVIKDEHPLQLVQEALGVQPKNEYE”: the protein production entry is on record as “failed”.
With “MSINLSKGDKIDLKKSNPGLSNILVGLGWDPVQQSGGGFFKSLFGGGQADIDCDASVFMLNQEGKLSGIKDLIYFGNLKSACKSVLHTGDNLTGEGTGDDEQILVNLDKVPSNIHKLLFVVNIYNCVDRKQHFGMIENAYIRVEDQGNKKEIAKYNLSDNYSEKTTLIVGAIYRKDGSWQFKAIGEGTKDAGLKEVMQNLDRIECAYGI”, the protein production entry was “failed”.
